Measurements reported in patent US20110287458A1 (TEXAS A AND M UNIVERSITY SYSTEM, published 2011).

Target: the molecule itself
Assay: native PAGE, self-association
Protocol: Native polyacrylamide gel electrophoresis (PAGE) was performed by use of the MINI PROTEAN® 3 electrophoresis cell and a discontinuous buffer system (Ornstein-Davis) according to the standard procedures given by the manufacturer (Bio-Rad Laboratories). Using native PAGE, pure canine S100A12 was evaluated in the presence of 0.3 mM Ca²⁺, 3 mM Ca²⁺, 10 mM Ca²⁺, and 10 mM EGTA.

B1: canine S100A12 (other)
chain: TKLEDHLEGIVDVFHRYSARVGHPDTLSKGEMKQLIIRELPNTLKNTKDQATVDKLFQDLDADKDGQVNFNEFISLVSVVLDTSHKNTHK
notes: Purified from canine leukocytes; Runs as a non-covalent homodimer on native PAGE; In the RIA the tracer is 125I-labelled; In serum and fecal extracts it is the native protein; also called calgranulin C; EN-RAGE
**Q.** Does B1 bind?
**A.** Result: binds
